The test system of this assay is corn protoplasts. In words: Calcium burst in transiently transfected corn protoplasts, R-GECO1.2 fluorescence reporter. It counts as cell-based, Zea mays. As to conditions: Example 3, FIG. 4; 1 μM PpNLP20; 40 minutes; 384-well. From the text:
Following ligand (also known as elicitor) binding, PRRs are activated and induce a transient increase of cytosolic Ca^2+ concentration as part of a PTI response. […] In a high-throughput method, the kinetics of PRR-dependent transient variation of cytosolic Ca^2+ concentration can be measured with a fluorimeter or luminometer and in microplate formats of 96 or 384 wells.
Fluorescence was monitored using a fluorimeter equipped with a 100 Hz xenon flash lamp with excitation at 556 nm and emission measured at 585 nm for 100 ms, every 22.6 seconds for 42 minutes.
All of the AtRLP23 constructs have an operably linked 2×35S+Ω promoter construct (SEQ ID NO: 72) and an operably linked rbcS terminator (SEQ ID NO: 73)
Fluorescence was monitored using a fluorimeter equipped with a 100 Hz xenon flash lamp with excitation at 556 nm and emission measured at 585 nm for 30 ms, every 20.2 seconds for 40 minutes. For each fluorescence measurement, the transient change in R-GECO1.2 fluorescence (ΔF) are calculated from background corrected intensity values as (F-Fo), where F represents the average fluorescence intensity of the a batch of protoplasts treated with elicitor, and Fo represents the average fluorescence intensity of the same batch of protoplasts treated with a control solution that lacks the elicitor but is otherwise identical or essentially identical in composition to the solution comprising the elicitor.

B1: AtRLP23-AtSOBIR1-3×FLAG: AtRLP23 apoplastic and eJM domains, AtSOBIR1 TM and cytoplasmic domains, 3×FLAG; SEQ ID NO: 29, 30 (protein)
chain: MSKALLHLHFLSLFLLCCVCHSSIFTLNFHFTGIVACRPHQIQAFTKFTNEFDTRGCNNSDTFNGVWCDNSTGAVAVLQLRKCLSGTLKSNSSLFGFHQLRYVDLQNNNLTSSSLPSGFGNLKRLEGLFLSSNGFLGQVPSSFSNLTMLAQLDLSYNKLTGSFPLVRGLRKLIVLDLSYNHFSGTLNPNSSLFELHQLRYLNLAFNNFSSSLPSKFGNLHRLENLILSSNGFSGQVPSTISNLTRLTKLYLDQNKLTSSFPLVQNLTNLYELDLSYNKFFGVIPSSLLTLPFLAHLALRENNLAGSVEVSNSSTSSRLEIMYLGSNHFEGQILEPISKLINLKHLDLSFLNTSYPIDLKLFSSLKSLRSLDLSGNSISSASLSSDSYIPLTLEMLTLRHCDINEFPNILKTLKELVYIDISNNRMKGKIPEWLWSLPLLQSVTLGNNYFTGFQGSAEILVNSSVLLLYLDSNNFEGALPDLPLSIKGFGVASNSFTSEIPLSICNRSSLAAIDLSYNNFTGPIPPCLRNLELVYLRNNNLEGSIPDALCDGASLRTLDVSHNRLTGKLPRSFVNCSSLKFLSVINNRIEDTFPFWLKALPNLQVLTLRSNRFYGPISPPHQGPLGFPELRIFEISDNKFTGSLPPNYFVNWKASSRTMNQDGGLYMVYEEKLFDEGGYGYTDALDLQYKGLHMEQAKALTSYAAIDFSGNRLEGQIPESIGLLKALIAVNISNNAFTGHIPLSMANLENLESLDMSRNQLSGTIPNGLGSISFLAYINVSHNQLTGEIPQGTQITGQSKSSFEGNAGLCGLPLKESCFGTGAPPMYHQKQEDKEEEEEEEEEEEEVLNGRVAAWILGFVVGAIGGTISGFVFSVLFKLIIQAIRGSEKPPGPSIFSPLIKKAEDLAFLENEEALASLEIIGRGGCGEVFKAELPGSNGKIIAVKKVIQPPKDADELTDEDSKFLNKKMRQIRSEINTVGHIRHRNLLPLLAHVSRPECHYLVYEYMEKGSLQDILTDVQAGNQELMWPARHKIALGIAAGLEYLHMDHNPRIIHRDLKPANVLLDDDMEARISDFGLAKAMPDAVTHITTSHVAGTVGYIAPEFYQTHKFTDKCDIYSFGVILGILVIGKLPSDEFFQHTDEMSLIKWMRNIITSENPSLAIDPKLMDQGFDEQMLLVLKIACYCTLDDPKQRPNSKDVRTMLSQIKHSDYKDHDGDYKDHDLDAAAADYKDDDDK
modifications: Fusion protein
As to B1, the “responsiveness to PpNLP20 treatment compared to AtRLP23-3×FLAG (total transient increase of fluorescence)” value is “reduced responsiveness”.

Source of the values: US20220251595A1, “ENGINEERED ATRLP23 PATTERN RECOGNITION RECEPTORS AND METHODS OF USE” (priority 2019, published 2022).
